Measurements from publication PMC7897678 (Frontiers in Immunology, 2020).

B1: Recombinant human His-tagged neuronal pentraxin 1 (natural protein, UniProt Q15818 23-432, looked up)
chain: QDFGPTRFICTSVPVDADMCAASVAAGGAEELRSSVLQLRETVLQQKETILSQKETIRELTAKLGRCESQSTLDPGAGEARAGGGRKQPGSGKNTMGDLSRTPAAETLSQLGQTLQSLKTRLENLEQYSRLNSSSQTNSLKDLLQSKIDELERQVLSRVNTLEEGKGGPRNDTEERVKIETALTSLHQRISELEKGQKDNRPGDKFQLTFPLRTNYMYAKVKKSLPEMYAFTVCMWLKSSATPGVGTPFSYAVPGQANELVLIEWGNNPMEILINDKVAKLPFVINDGKWHHICVTWTTRDGVWEAYQDGTQGGSGENLAPYHPIKPQGVLVLGQEQDTLGGGFDATQAFVGELAHFNIWDRKLTPGEVYNLATCSTKALSGNVIAWAESHIEIYGGATKWTFEACRQIN
notes: neuronal pentraxin 1 (NP1), human, recombinant; see the vendor's data sheet; also called NP1; NPs (with NP2); source: bought: R&D Systems (7707-NP-050)
B2: Recombinant human His-tagged neuronal pentraxin 2 (natural protein, UniProt P47972 16-431, looked up)
chain: GAQDSPAPGSRFVCTALPPEAVHAGCPLPAMPMQGGAQSPEEELRAAVLQLRETVVQQKETLGAQREAIRELTGKLARCEGLAGGKARGAGATGKDTMGDLPRDPGHVVEQLSRSLQTLKDRLESLEHQLRANVSNAGLPGDFREVLQQRLGELERQLLRKVAELEDEKSLLHNETSAHRQKTESTLNALLQRVTELERGNSAFKSPDAFKVSLPLRTNYLYGKIKKTLPELYAFTICLWLRSSASPGIGTPFSYAVPGQANEIVLIEWGNNPIELLINDKVAQLPLFVSDGKWHHICVTWTTRDGMWEAFQDGEKLGTGENLAPWHPIKPGGVLILGQEQDTVGGRFDATQAFVGELSQFNIWDRVLRAQEIVNIANCSTNMPGNIIPWVDNNVDVFGGASKWPVETCEERLLDL
notes: neuronal pentraxin 2 (NP2), human, recombinant; see the vendor's data sheet; also called NP2; NPs (with NP1); source: bought: R&D Systems (7816-NP-050)

Molecular target: T1, C1q isolated from mouse serum (mouse, UniProt P98086 23-245; P14106 26-253; Q02105 30-246)
T1 construct: complement C1q subcomponent chain A (C1qA), mouse; complement C1q subcomponent chain B (C1qB), mouse; complement C1q subcomponent chain C (C1qC), mouse; also called purified C1q; copies: 6 + 6 + 6
T1 sequence (P98086 23-245, chain 1 of 3): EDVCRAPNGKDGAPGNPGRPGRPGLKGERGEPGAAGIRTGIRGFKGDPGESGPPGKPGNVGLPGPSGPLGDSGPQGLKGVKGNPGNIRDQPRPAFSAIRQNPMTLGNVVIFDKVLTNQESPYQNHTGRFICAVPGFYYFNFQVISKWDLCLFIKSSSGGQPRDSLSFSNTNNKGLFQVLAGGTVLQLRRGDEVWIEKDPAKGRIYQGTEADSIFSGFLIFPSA
T1 sequence (P14106 26-253, chain 2 of 3): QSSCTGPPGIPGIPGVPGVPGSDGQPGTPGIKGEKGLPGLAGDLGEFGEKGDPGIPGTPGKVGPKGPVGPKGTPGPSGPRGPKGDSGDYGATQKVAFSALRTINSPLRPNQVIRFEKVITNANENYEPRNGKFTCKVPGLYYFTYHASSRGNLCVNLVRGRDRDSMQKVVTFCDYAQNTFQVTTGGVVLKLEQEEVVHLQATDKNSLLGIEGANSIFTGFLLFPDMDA
T1 sequence (Q02105 30-246, chain 3 of 3): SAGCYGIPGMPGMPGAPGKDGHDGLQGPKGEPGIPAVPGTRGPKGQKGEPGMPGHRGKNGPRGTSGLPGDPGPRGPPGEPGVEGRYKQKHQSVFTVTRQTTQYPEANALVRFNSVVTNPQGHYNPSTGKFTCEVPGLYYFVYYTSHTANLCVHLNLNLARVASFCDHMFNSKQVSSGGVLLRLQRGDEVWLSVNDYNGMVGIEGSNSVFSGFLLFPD
Assay: ELISA; NP1, NP2 or PTX3 coated (10 µg/ml in PBS, overnight 4 °C), blocked with 4% BSA in PBS-T; C1q 5.6–45 µg/ml in PBS, 1 h at RT; bound C1q detected with anti-C1qb antibody
Conditions: both partners purified

Binder | binding result
B1 | binds
B2 | binds
